Patent publication US20100105876A1, “Method for the oligomerisation of peptides” (priority 1996, published 2010)
Bridge positions count the residues as written; N and C are the ends. Ends that are not written are not given here.

Tests used:
[1] = target: Pentabody Pab-S (peptide S - camel Ig hinge - modified COMP pentamerization domain - 6xHis, homopentamer) (UniProt P35444); experiment: soluble BCL1 IgM competing the binding of Pab-S to BCL1 cells
BCL1 IgM idiotype = experiment: RIA competition on plastic: inhibition of 125I labeled B1 IgG binding to coated BCL1 IgM; set-up: species or system mouse
Description: RIA competition on plastic. Polyvinil 96-well plates are coated with BCL1 IgM at 3 μg/ml in PBS for 16 h at 4° C. and blocked with 2% MPBS for 1 h at 37° C. Different amounts of peptides are incubated with 10 nCi of ^125I labeled B1 IgG for 1 h at 37° C. The wells are washed with PBS containing 0.1% of Tween-20 and the amounts of radioactivity retained is measured with an automated multichannel Cobra II γ-counter.
Synthetic peptides corresponding to the selected sequences are prepared as outlined in Table 1. Cysteins containing peptide S is completely oxidized on air loosing two hydrogen atoms, as shown by Mass Spectroscopy, which is consistent with the cyclization of the peptide. All synthetic peptides are tested for binding inhibition of ^125I labeled B1 IgG to BCL1 IgM coated on plastic. The D and the S peptides inhibit binding with an IC50 of about 60 μM and 200 μM, respectively. No inhibition is seen with peptide F up to 2 mM, which is used, thereafter, as a negative control.
However, since spatial arrangement of target molecule on the surface may influence multivalent binding, the equilibrium binding parameters of Pab-S are determined directly on live BCL1 cells, which represent a more relevant biological surface. Purified Pab-S is labeled with ^125I and is shown to bind to BCL1 idiotype on the cell surface. […]

[2] = target: BCL1 soluble IgM (idiotype-bearing IgM purified from the serum of a mouse carrying the BCL1 B-cell lymphoma) (mouse); experiment: RIA competition: peptide against 125I B1 IgG on BCL1 IgM coated on plastic

Sequence of UniProt P35444 (P35444 other isoform, or with tags, fused parts or gaps): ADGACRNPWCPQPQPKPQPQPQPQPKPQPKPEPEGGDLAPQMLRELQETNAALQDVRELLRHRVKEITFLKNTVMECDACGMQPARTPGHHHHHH

Molecule: BCL1 soluble IgM (idiotype-bearing IgM purified from the serum of a mouse carrying the BCL1 B-cell lymphoma) (antibody)
- concentration for 80% displacement [1]: 100 nM

Molecule: SVWRWLPYDKYE
- IC50 (BCL1 IgM idiotype; synthetic peptides, BCL1 IgM coated on plastic): ~60 µM

Molecule: peptide F: Synthetic peptide, first ten amino acids of the sequence selected from the Fisch library (SEQ ID 3); negative control (TAAGLCEFDQ; Synthetic peptide ligand specific for mouse BCL1 idiotype selected from peptide libraries dispalyed on filamentous bacteriophage displaying random hexapeptides or decapeptides)
- inhibition of 125I labeled B1 IgG binding to BCL1 IgM coated on plastic (BCL1 IgM idiotype; up to 2 mM peptide): No inhibition

Molecule: SVWRWLPYDKYE [synthetic peptide D (selected from the Doorbar library)]
- IC50 [2]: 60 µM

Molecule: ADGACRNPWC (disulfide 5-10 (inferred)) [synthetic peptide S (selected from the Smith library, oxidized/cyclized)]
- IC50 [2]: 200 µM
